Measurements taken from patent US6368790 (UNIVERSITY OF TENNESSEE RESEARCH, dated 2002).

T1: Rb1 tumor suppressor protein (human, UniProt P06400 2-928)
T1 construct: Native protein from K562 lysate; also called pRb1; hypophosphorylated form of Rb1
T1 sequence (looked up): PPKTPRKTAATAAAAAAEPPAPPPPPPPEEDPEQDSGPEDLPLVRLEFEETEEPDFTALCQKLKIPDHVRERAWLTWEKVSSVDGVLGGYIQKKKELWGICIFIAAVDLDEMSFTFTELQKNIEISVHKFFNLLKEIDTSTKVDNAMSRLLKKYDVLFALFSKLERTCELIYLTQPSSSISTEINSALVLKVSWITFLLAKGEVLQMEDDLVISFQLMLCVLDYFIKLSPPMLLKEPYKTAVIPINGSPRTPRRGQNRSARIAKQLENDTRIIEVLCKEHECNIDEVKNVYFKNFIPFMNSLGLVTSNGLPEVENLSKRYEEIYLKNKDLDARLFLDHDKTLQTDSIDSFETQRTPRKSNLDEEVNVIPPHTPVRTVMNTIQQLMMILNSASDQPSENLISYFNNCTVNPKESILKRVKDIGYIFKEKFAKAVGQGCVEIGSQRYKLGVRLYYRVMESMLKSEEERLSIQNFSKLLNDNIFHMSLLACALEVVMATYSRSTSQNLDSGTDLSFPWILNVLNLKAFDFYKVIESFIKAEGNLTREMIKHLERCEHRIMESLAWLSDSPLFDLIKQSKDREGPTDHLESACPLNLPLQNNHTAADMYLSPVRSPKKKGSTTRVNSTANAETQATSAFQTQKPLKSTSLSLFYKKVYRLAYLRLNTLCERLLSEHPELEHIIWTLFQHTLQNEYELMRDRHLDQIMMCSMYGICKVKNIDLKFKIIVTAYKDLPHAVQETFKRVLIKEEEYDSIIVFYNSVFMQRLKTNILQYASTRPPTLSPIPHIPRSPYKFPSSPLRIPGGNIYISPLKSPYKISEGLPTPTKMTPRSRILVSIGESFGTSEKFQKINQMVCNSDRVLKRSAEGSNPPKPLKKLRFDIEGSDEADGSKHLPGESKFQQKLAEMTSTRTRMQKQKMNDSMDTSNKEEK

B1: GST-P2P (1-332) fusion protein (other, not shown: a dimerising Fc or GST)
chain: MMEVKDPNMKGAMLTNTGKYAIPTIDAEAYAIGKKEKPPFLPEEPSSSSEEDDPIPAELLCLICKDIMTDAVVIPCCGNSSCDECIRTTLLESDKHTCPTCHQNDVSPDALIANKFLRQAVNNFKNETGYTKRLRKQLPPFLFLVPPPRPLSQRNLQPRSRSPILRQQDPVVFRYTVSPTCSDTKTAGSCSDSGTLSRLPAPSISSLTSNQSSLAPPVSGNPSSAPAPVPDITATVSISVHSEKSDGPFRDSDNKLLPAAALTSEHSKGASSIAITALMEEKGVPGTSPWNSIFVGQSLLHGQLIPTTGPVRINAARPGGGRPGWEHSNKLG
B2: GST-P2P (918-1095) fusion protein (other, not shown: a dimerising Fc or GST)
chain: RPRSLRKINYLIAREKNEREKRKKSVDKDFESSSMKISKVEGTEIVKPSPKRKMEGDVEKLERTPEKDKIASSTTPAKKIKLNRETGKKIGNAENASTTKEPSEKLESTSSKIKQEKVKGKAKRKVAGSEGSSSTLVDYTSTSSTGGSPVRKSEEKTDTKRTVIKTMEEYNNDNTAPA
B3: GST-P2P (494-688) fusion protein (other, not shown: a dimerising Fc or GST)
chain: AQHIHALTLSPSAAHTLDLLHDHPHPPEEAEARSAMIVHMPDLMDIAHARSRSPPYRRYRSRSRSPPEFRGQSPTKRNVPREEKEREYFNRYREVPPPYDIKAYYGRSVDFRDPFEKERYREWERKYREWYEKYYKGYAVGAQPRPSANREDFSPERLLPLNIRNSPFTRGRREDYAAGQSHRNRNLGGNYPEKL
notes: also called GST-P2P (484-688)

target: T1, Rb1 tumor suppressor protein; test: GST pull-down from K562 lysate, Western blot with anti-Rb1
From the text: As precipitation controls, aliquots of the K562 lysate were immunoprecipitated with anti-Rb1 antibody IF8 or normal rabbit sera. Bound proteins were separated by electrophoresis in a 7% SDS-polyacrylamide gel and transferred to a nitrocellulose membrane. An aliquot of the K-562 crude lysate was included as a positive control for Western analysis. Proteins were visualized by probing the blot with anti-Rb1 antibodies IF-8 or C15. […] Bound proteins were separated by electrophoresis in a 7% SDS-polyacrylamide gel and transferred to a nitrocellulose membrane. Proteins were visualized by probing the blot with anti-Rb1 antibodies IF8 or C15.
Glutathione S-transferase (GST)-P2P fusion proteins were expressed and recovered on glutathione-sepharose beads as described above. Whole-cell lysates of K562 cells (1 ×10^7 cells/sample) were rocked with the beads for 1 hour at 4° C. and then washed five times with NETN buffer. The beads were then boiled in 1× SDS loading buffer and the proteins separated on SDS-polyacrylamide gels and transferred to nitrocellulose membranes. Competition experiments were performed by adding an excess of the 6X-His E1a fusion protein to the cellular lysates prior to the addition of the GST-P2P fusion proteins. The Rb1 protein was visualized by immunoblotting using anti-Rb1 antibodies IF8 or C15 (Santa Cruz Biotechnology, Santa Cruz, Calif.). These antibodies were also used to immunoprecipitate native Rb1 from the cellular lysates to serve as a positive control following the manufacturers' protocol.

binding result	Binder
no binding	B1
no binding	B2
no binding	B3
